From US20190040149A1 come the findings set out here.

As a reminder, the Kd is the free concentration of one partner at which half of the binding sites on the other are occupied at equilibrium, for simple one-to-one binding. A low value points to higher affinity.

In test [1] the target is cyno PD-1_Fc (cyno). The experiment in a line: bio-layer interferometry (ForteBio), Fab in solution, cyno PD-1_Fc on sensor tip. (In general: Biolayer interferometry detects binding as a change in optical thickness at a sensor tip.)
Test [2] concerns the target human PD-1 on cells (CHO cells; T cells in the mixed lymphocyte reaction) (human) (UniProt Q15116). Put plainly: cell-based or functional assay.
Test [3] shares this target. The experiment in a line: flow cytometry, remaining PD-L2-FITC signal after 100 nM IgG; competitor PD-L2-FITC.

human PD-1 on cells (CHO cells; T cells in the mixed lymphocyte reaction) (human), sequence (Q15116 25-288 limits assumed): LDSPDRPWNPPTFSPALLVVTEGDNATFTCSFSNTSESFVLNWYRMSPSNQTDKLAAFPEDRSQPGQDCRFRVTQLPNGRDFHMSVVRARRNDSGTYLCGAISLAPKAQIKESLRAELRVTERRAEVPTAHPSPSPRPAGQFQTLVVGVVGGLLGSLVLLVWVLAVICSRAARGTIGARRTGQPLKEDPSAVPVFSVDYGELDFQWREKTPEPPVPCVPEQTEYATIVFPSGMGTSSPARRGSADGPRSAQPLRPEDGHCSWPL
Fab of pembrolizumab, sequence (VH): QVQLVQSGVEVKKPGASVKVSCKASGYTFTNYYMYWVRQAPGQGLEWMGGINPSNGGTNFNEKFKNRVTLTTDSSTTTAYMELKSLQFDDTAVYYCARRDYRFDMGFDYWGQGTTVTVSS
Fab of pembrolizumab, sequence (VL): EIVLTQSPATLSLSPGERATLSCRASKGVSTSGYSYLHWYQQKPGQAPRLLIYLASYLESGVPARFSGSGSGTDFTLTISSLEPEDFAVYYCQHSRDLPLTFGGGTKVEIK

For Fab of nivolumab, the Kd in test [1] is 1200 pM.

In test [1], Fab of pembrolizumab registered a Kd of 470 pM.

In test [2], IgG Control (antibody) yielded an IFNγ in supernatant, 0.01 nM IgG (IgG control, baseline of the fold change) of 14900 pg/mL; an IFNγ in supernatant, 0.1 nM IgG (IgG control, baseline of the fold change) of 11000 pg/mL; an IFNγ in supernatant, 1 nM IgG (IgG control, baseline of the fold change) of 11600 pg/mL; an IFNγ in supernatant, 10 nM IgG (IgG control, baseline of the fold change) of 13500 pg/mL. In test [2], this substance showed an IFNγ in supernatant, 100 nM IgG (IgG control, baseline of the fold change) of 14900 pg/mL; an IL-2 in supernatant, 0.01 nM IgG (IgG control, baseline of the fold change) of 515 pg/mL; an IL-2 in supernatant, 0.1 nM IgG (IgG control, baseline of the fold change) of 509 pg/mL; an IL-2 in supernatant, 1 nM IgG (IgG control, baseline of the fold change) of 500 pg/mL. In test [2], the IL-2 in supernatant, 10 nM IgG (IgG control, baseline of the fold change) was found to be 522 pg/mL and the IL-2 in supernatant, 100 nM IgG (IgG control, baseline of the fold change) was 619 pg/mL. In test [3], this substance showed an MFI (PD-L2-FITC) of 183000 MFI.
